Test results reported in patent US20210107983A1 (Boehringer Ingelheim, published 2021).
Numbering of substitutions follows the chain as printed. Each block holds one binder with its values, some of them ahead of it.

Legend:
[1] = target: T1, Cyno B7H6-His (cynomolgus monkey); assay: ratio of SPR KDs cyno/human
T1 construct: also called CyB7H6; cyB7-H6
T1 chain: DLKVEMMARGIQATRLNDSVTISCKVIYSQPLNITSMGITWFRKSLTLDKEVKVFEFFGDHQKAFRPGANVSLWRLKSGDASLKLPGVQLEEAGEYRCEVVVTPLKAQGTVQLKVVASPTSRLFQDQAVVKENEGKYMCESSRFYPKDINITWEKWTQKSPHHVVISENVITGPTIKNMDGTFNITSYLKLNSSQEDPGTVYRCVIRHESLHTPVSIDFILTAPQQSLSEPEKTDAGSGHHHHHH
Description: (§1) About 700 RU of the B7H6/CD3 binding protein was captured on flow cell 2 of the Protein A/G surface for 60 s at a flow rate of 10 μL/min. The analytes HuB7H6, CyB7H6 and HuB7H1 were injected across both flow cells over captured B7H6/CD3 binding protein for 300 s at a flow rate of 30 μL/min with a dissociation of 1200 s. The concentrations of HuB7H6 and CyB7H6 were 0 nM, 6.25 nM, 12.5 nM, 25 nM, 50 nM and 100 nM. The concentrations of HuB7H1 were 0 nM and 1 μM. The surface was regenerated by injecting 10 mM glycine-HCl, pH 1.5 for 20 s at a flow rate of 30 μL/min across both flow cells.
(§2) The reference flow cell 1 (interactions with sensor surface) and blank (HBS-EP+ or 0 nM analyte) were subtracted from the raw data.
(§3) The B7H6/CD3 binding protein analyte was injected horizontally over the immobilized surface for 300 s at a flow rate of 30 μL/min with a dissociation of 600 s. The concentrations of the B7H6/CD3 binding protein used were 0 nM, 1.2 nM, 3.7 nM, 11.1 nM, 33.3 nM and 100 nM.

[2] = target: T2, Human CD3 E+G HuFc-6xHis (human); assay: SPR, CD3E+G-hFc immobilized, binder analyte
T2 construct: also called HuCD3E+G-hFc; huCD3
Description: To determine the affinity of the B7H6/CD3 binding protein to human and cyno CD3E+G-hFc, the experiment was performed on a Bio-Rad ProteOn™ XPR36 instrument. Briefly, HuCD3E+G-hFc and CyCD3E+G were amine-coupled on a ProteOn™ GLM sensor chip (Bio-Rad) and the B7H6/CD3 binding protein was flowed over the immobilized surface. The running buffer for this experiment and all serial dilutions were prepared in HBS-EP+. The GLM sensor chip was normalized according to Bio-Rad's recommendations. The sensor chip was activated with an equal mixture of EDC/s-NHS in the horizontal direction for 300 s at a flow rate of 30 μL/min HuCD3E+G-hFc was immobilized in the vertical direction at 0.4 μg/mL, 0.2 μg/mL and 0.1 μg/mL in 10 mM acetate pH 4.5 to L1, L2 and L3, respectively, for 300 s at a flow rate of 30 μL/min resulting in about 100 RU of HuCD3E+G-hFc on L1, 40 RU of HuCD3E+G-hFc on L2 and 0 RU of HuCD3E+G-hFc on L3. CyCD3E+G-hFc was immobilized in the vertical direction at 0.4 μg/mL, 0.2 μg/mL and 0.1 μg/mL in 10 mM acetate pH 4.5 to L4, L5 and L6, respectively, for 300 s at a flow rate of 30 μL/min resulting in about 385 RU of […], 170 RU of CyCD3E+G-hFc on L5 and 50 RU of CyCD3E+G-hFc on L6. The sensor chip was deactivated with 1M ethanolamine-HCl in the horizontal direction for 300 s at a flow rate of 30 μL/min.
as §3
The interspot (interactions with sensor surface) and blank (HBS-EP+ or 0 nM analyte) were subtracted from the raw data.

[3] = target: T3, trypsin inhibitor from Glycine max soybean (Glycine max (soybean)); assay: SPR, 1 µM binder over immobilized trypsin inhibitor
T3 construct: unrelated negatively charged protein, amine-coupled to the chip
Description: (§4) The experiment was performed on a Biacore® T200 SPR system (GE Healthcare Life Sciences). The dilution, surface preparation, and binding experiments were performed at 25° C. in 1×HBS-EP buffer prepared from 10×HBS-EP. The flow rate for both the immobilization protocol and binding experiment was at 5 μL/min.
(§5) To prepare the surface for the non-specific binding experiment, chicken egg white lysozyme and trypsin inhibitor from Glycine max soybean were coupled manually to a Biacore® series S CM5 sensor chip (GE Healthcare sciences) with the surface density of 3000-5000 RU using the amine coupling kit according to the manufacture instructions. Samples were prepared at 1 μM in 1×HBS-EP buffer. The samples were injected over activated surfaces with a 10 min association and 15 min dissociation. The data was collected using Biacore® T200 Control Software version 2.0.1 and analyzed using Biacore® T200 Evaluation Software version 3.0 (GE Healthcare Life Sciences).

[4] = target: T4, chicken egg white lysozyme (chicken, UniProt P00698 19-147); assay: SPR, 1 µM binder over immobilized lysozyme
T4 construct: unrelated positively charged protein, amine-coupled to the chip; also called Lysozyme (positive)
Description: as §4, §5

[5] = target: T1, Cyno B7H6-His; assay: SPR, binder captured on Protein A/G, B7H6 analyte
Description: (§6) To determine the affinity of human and cyno B7H6 and human B7H1 to B7H6/CD3 binding proteins, the experiment was performed on a Biacore™ 8K instrument (GE Healthcare Life Sciences). Briefly, the B7H6/CD3 binding protein was captured via Protein A/G. The running buffer for this experiment and all serial dilutions were prepared in HBS-EP+. The CM5 sensor chip was activated with an equal mixture of EDC/NHS across both flow cells for 420 s at a flow rate of 10 μL/min and immobilized with recombinant Protein A/G (50 μg/ml in 10 mM NaOAc, pH 4.5) across all flow cells for 420 s at a flow rate of 10 μL/min resulting in about 2500 RU of Protein A/G on the surface. The sensor chip was deactivated with 1M ethanolamine-HCl across all flow cells for 420 s at a flow rate of 10 μL/min.
as §1, §2

[6] = target: T5, Human B7H1 (human, UniProt Q9NZQ7 20-239); assay: SPR, binder captured on Protein A/G, HuB7H1 analyte
T5 construct: also called HuB7H1; huB7-H1
Description: as §6, §1, §2

T3 sequence (P01070 25-205): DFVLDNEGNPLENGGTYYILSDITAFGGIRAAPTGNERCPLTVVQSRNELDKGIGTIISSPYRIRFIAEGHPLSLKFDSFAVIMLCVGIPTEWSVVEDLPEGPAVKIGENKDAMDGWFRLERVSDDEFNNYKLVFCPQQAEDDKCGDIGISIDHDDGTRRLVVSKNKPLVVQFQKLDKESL
T5 sequence (Q9NZQ7 other isoform, or with tags, fused parts or gaps limits assumed): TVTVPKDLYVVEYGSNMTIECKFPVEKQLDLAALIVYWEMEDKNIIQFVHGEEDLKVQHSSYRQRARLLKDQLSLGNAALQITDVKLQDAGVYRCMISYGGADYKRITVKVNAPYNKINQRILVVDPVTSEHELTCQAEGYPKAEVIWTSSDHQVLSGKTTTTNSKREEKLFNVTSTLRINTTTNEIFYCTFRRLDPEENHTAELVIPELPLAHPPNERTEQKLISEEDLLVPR
T2 sequence (chain, as listed by the source limits assumed): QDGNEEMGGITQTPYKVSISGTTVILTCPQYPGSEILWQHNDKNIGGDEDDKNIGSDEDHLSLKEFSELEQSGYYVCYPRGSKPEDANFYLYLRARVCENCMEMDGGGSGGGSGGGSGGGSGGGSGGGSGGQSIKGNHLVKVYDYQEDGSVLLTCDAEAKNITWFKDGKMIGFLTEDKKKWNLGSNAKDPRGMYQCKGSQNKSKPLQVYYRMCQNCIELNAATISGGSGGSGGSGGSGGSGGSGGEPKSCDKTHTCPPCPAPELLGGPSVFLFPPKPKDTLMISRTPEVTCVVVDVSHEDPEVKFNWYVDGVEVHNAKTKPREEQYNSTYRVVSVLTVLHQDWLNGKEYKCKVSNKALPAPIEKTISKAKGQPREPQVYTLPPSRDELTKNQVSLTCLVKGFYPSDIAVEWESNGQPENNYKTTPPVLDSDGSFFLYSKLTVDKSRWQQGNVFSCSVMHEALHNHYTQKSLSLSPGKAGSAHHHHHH
T4 sequence (P00698 19-147): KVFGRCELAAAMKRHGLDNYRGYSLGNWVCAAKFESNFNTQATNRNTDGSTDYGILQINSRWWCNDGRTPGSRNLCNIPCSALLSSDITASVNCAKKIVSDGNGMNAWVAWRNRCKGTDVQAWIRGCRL

B1: B7H6#16/CD3#1 (bispecific antibody, human IgG1, kappa, lambda, L234A L235A)
chain 1: DIQMTQSPSSLSASVGDRVTITCKASQNVGKYVAWYQQKPGKAPKSLIYSASNRYDGVPSRFSGSGSGTDFTLTISSLQPEDFTTYYCQQYISYPLTFGAGTKLEIKRTVAAPSVFIFPPSDEQLKSGTASVVCLLNNFYPREAKVQWKVDNALQSGNSQESVTEQDSKDSTYSLSSTLTLSKADYEKHKVYACEVTHQGLSSPVTKSFNRGECGGGGSEGKSSGSGSESKSTEGKSSGSGSESKSTGGGGSQVQLVQSGAEVKKPGASVKVSCKASGYTFTSYWMNWMRQAPGQGLEWMGGIYLSGESTDYNEKFKGRVTMTVDTSTSTVYMELSSLRSEDTAVYYCTRRGDYFGDFWGQGTLVTVSSASTKGPSVFPLAPSSKSTSGGTAALGCLVKDYFPEPVTVSWNSGALTSGVHTFPAVLQSSGLYSLSSVVTVPSSSLGTQTYICNVNHKPSNTKVDKRVEPKSCDKTHTCPPCPAPEAAGGPSVFLFPPKPKDTLMISRTPEVTCVVVDVSHEDPEVKFNWYVDGVEVHNAKTKPREEQYNSTYRVVSVLTVLHQDWLNGKEYKCKVSNKALPAPIEKTISKAKGQPREPQVYTLPPSREEMTKNQVSLWCLVKGFYPSDIAVEWESNGQPENNYKTTPPVLDSDGSFFLYSKLTVDKSRWQQGNVFSCSVMHEALHNHYTQKSLSLSPG
chain 2: EAVVTQEPSLTVSPGGTVTLTCRSSTGAVTTSNYANWVQEKPGQLPRGLIGGTNKRAPWVPARFSGSLLGGKAALTLSGAQPEDEAEYFCALWYSNLWVFGGGTKLTVLGQPKAAPSVTLFPPSSEELQANKATLVCLISDFYPGAVKVAWKADGSPVNTGVETTTPSKQSNNKYAASSYLSLTPEQWKSHRSYSCQVTHEGSTVEKTVAPAECSGGGGSEGKSSGSGSESKSTEGKSSGSGSESKSTGGGGSEVQLVESGGGLVQPGGSLKLSCAASGFTFNTYAMNWVRQAPGKGLEWVARIRSKYNNYATYYADSVKDRFTISRDDSKNTAYLQMNNLKTEDTAVYYCVRHGNFGNSYVSWFAYWGQGTLVTVSAASTKGPSVFPLAPSSKSTSGGTAALGCLVKDYFPEPVTVSWNSGALTSGVHTFPAVLQSSGLYSLSSVVTVPSSSLGTQTYICNVNHKPSNTKVDKRVEPKSCDKTHTCPPCPAPEAAGGPSVFLFPPKPKDTLMISRTPEVTCVVVDVSHEDPEVKFNWYVDGVEVHNAKTKPREEQYNSTYRVVSVLTVLHQDWLNGKEYKCKVSNKALPAPIEKTISKAKGQPREPQVYTLPPSREEMTKNQVSLSCAVKGFYPSDIAVEWESNGQPENNYKTTPPVLDSDGSFFLVSKLTVDKSRWQQGNVFSCSVMHEALHNRFTQKSLSLSPG
notes: scFab-Fc heterodimer, one B7H6 chain and one CD3 chain
cy/hu B7-H6 [1]: 2.3
Kd [2]: 3.7 nM
Non-specific binding (RU) [3]: 42.6 RU
Non-specific binding (RU) [4]: 8.2 RU
Kd [5]: 7.2 nM
binding result [6]: no binding (tested: 1 µM)

B2: B7H6#15/CD3#1 (bispecific antibody, human IgG1, kappa, lambda, L234A L235A)
chain 1: B1 chain 1 with S283N, E308D
chain 2: B1 chain 2
notes: as for B1
cy/hu B7-H6 [1]: 2.8
Kd [2]: 3.8 nM
Non-specific binding (RU) [3]: 32.8 RU
Non-specific binding (RU) [4]: 7.2 RU
Kd [5]: 2.2 nM
binding result [6]: no binding (tested: 1 µM)

The remaining lines, values ahead:

cy/hu B7-H6 [1]: 0.9
Kd [2]: 5.5 nM
Non-specific binding (RU) [3]: 45.7 RU
Non-specific binding (RU) [4]: 8.1 RU
Kd [5]: 1.2 nM
binding result [6]: no binding (tested: 1 µM)
B3: B7H6#23/CD3#1 (bispecific antibody, human IgG1, kappa, lambda, L234A L235A)
chain 1: B1 chain 1 with G57A, T84A, Y87F, R290K, M300I, R319K
chain 2: B1 chain 2
notes: as for B1

cy/hu B7-H6 [1]: 2.3
Kd [2]: 3.9 nM
Non-specific binding (RU) [3]: 32.8 RU
Non-specific binding (RU) [4]: 6.6 RU
Kd [5]: 3.3 nM
binding result [6]: no binding (tested: 1 µM)
B4: B7H6#18/CD3#1 (bispecific antibody, human IgG1, kappa, lambda, L234A L235A)
chain 1: B1 chain 1 with G57A, E308D
chain 2: B1 chain 2
notes: as for B1

cy/hu B7-H6 [1]: 1
Kd [2]: 5.1 nM
Non-specific binding (RU) [3]: 39.5 RU
Non-specific binding (RU) [4]: 7.8 RU
Kd [5]: 1.4 nM
binding result [6]: no binding (tested: 1 µM)
B5: B7H6#22/CD3#1 (bispecific antibody, human IgG1, kappa, lambda, L234A L235A)
chain 1: B1 chain 1 with G57A, T84A, Y87F, R290K, M300I, E308D, R319K
chain 2: B1 chain 2
notes: as for B1
